According to publication PMC5155031:
Values belong to the binder of their own block, whether it stands above or below them.

Experiments:
Test in all cases: dose-dependent binding with Scatchard plot analysis
[1] = biological target: mIgCLL5-1, CLL-derived monoclonal Igγ1 antibody of clonotype CLL5-1
[2] = biological target: mIgCLL3-1, CLL-derived monoclonal Igγ1 antibody of clonotype CLL3
[3] = biological target: mIgCLL6-1, CLL-derived monoclonal Igγ1 antibody of clonotype CLL6-1
[4] = biological target: mIgCLL3-2, CLL-derived monoclonal Igγ1 antibody of clonotype CLL3
[5] = biological target: mIgCLL2-2, CLL-derived monoclonal Igγ1 antibody of clonotype CLL2
[6] = biological target: mIgCLL6-2, CLL-derived monoclonal Igγ1 antibody of clonotype CLL6-2
[7] = biological target: mIgCLL5-2, CLL-derived monoclonal Igγ1 antibody of clonotype CLL5-2
[8] = biological target: mIgCLL2-1, CLL-derived monoclonal Igγ1 antibody of clonotype CLL2

Binder: CFSDDEWWC [pCLL5-1 mimotope]
- Kd [1]: 7.08 nM

Binder: CPPQSVTEC [pCLL3-1 mimotope]
- Kd [2]: 22.1 nM

Binder: CDVWHSAYC [pCLL3-2 mimotope]
- Kd [4]: 5.64 nM

Binder: CKSYSVSLC [pCLL2-2 mimotope]
- Kd [5]: 7.57 nM

Binder: CNTYSVSLC [pCLL2-1 mimotope]
- Kd [8]: 10.8 nM

The next lines start with the values.

- Kd [3]: 57.5 nM
Binder: CNQDWHKKC [pCLL6-1 mimotope]

- Kd [6]: 22.7 nM
Binder: CTTVIPERC [pCLL6-2 mimotope]

- Kd [7]: 7.32 nM
Binder: CPPFTNYEC [pCLL5-2 mimotope]
